Reference: ChEMBL document CHEMBL3392998
Activity calls are given as the source filed them. No cut-off for these calls is given here.

Tests used:
[1] = biological target: Protease (Human immunodeficiency virus 1) (UniProt Q9YQ12); conditions: 1 to 180 uM
[2] = tested on: Human immunodeficiency virus type 1 protease (Human immunodeficiency virus 1), Q72874 [L10I,L63P,A71V,G73S,I84V,L90M]; conditions: 1 to 180 uM
[3] = tested on: O=C1c2cccc([N+](=O)[O-])c2C(=O)N1c1ccc2[nH]c(=S)sc2c1; conditions: Human immunodeficiency virus 1; 100 uM
[4] = tested on: O=C1c2cccc([N+](=O)[O-])c2C(=O)N1c1ccc2[nH]c(=S)sc2c1; conditions: Human immunodeficiency virus 1; 150 uM
[5] = tested on: O=C1c2cccc([N+](=O)[O-])c2C(=O)N1c1ccc2[nH]c(=S)sc2c1; conditions: Human immunodeficiency virus 1; 100 uM; remark: listed apart in the source
[6] = tested on: O=C1c2cccc([N+](=O)[O-])c2C(=O)N1c1ccc2[nH]c(=S)sc2c1; conditions: Human immunodeficiency virus 1; 150 uM; remark: listed apart in the source
[7] = tested on: O=C1c2cccc([N+](=O)[O-])c2C(=O)N1c1ccc2[nH]c(=S)sc2c1; conditions: Human immunodeficiency virus 1; 100 uM; remark: listed apart in the source
[8] = tested on: O=C1c2cccc([N+](=O)[O-])c2C(=O)N1c1ccc2[nH]c(=S)sc2c1; conditions: Human immunodeficiency virus 1; 150 uM; remark: listed apart in the source
[9] = tested on: O=C1c2cccc([N+](=O)[O-])c2C(=O)N1c1ccc2[nH]c(=S)sc2c1; conditions: Human immunodeficiency virus 1; 100 uM; remark: listed apart in the source
[10] = tested on: O=C1c2cccc([N+](=O)[O-])c2C(=O)N1c1ccc2[nH]c(=S)sc2c1; conditions: Human immunodeficiency virus 1; 150 uM; remark: listed apart in the source

Compound: O=C1c2cccc([N+](=O)[O-])c2C(=O)N1c1ccc2[nH]c(=S)sc2c1
- inhibition [1]: inactive
- inhibition [2]: inactive

Compound: Human immunodeficiency virus type 1 protease (Human immunodeficiency virus 1), Q72874 L10I,L63P,A71V,G73S,I84V,L90M
- Vmax [3]: 30 nM/s
- Km [4]: 359 µM
- Km [5]: 246 µM
- Vmax [6]: 30 nM/s

Compound: Protease (Human immunodeficiency virus 1), Q9YQ12
- Km [7]: 144 µM
- Vmax [8]: 34 nM/s
- Vmax [9]: 35 nM/s
- Km [10]: 184 µM
